# Laboratory results from the supplement of paper PMC9732359.
# ± gives the uncertainty stated by the source.
# Experiment: protein stability index of a GFP-peptide fusion (yeast GPS) (PSI 1-4); higher = more stable; sorted into four equal gates, so the index is relative within each strain
# Method in brief: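 Peptides tiling yeast proteins in 17-residue segments were fused downstream of GFP, with Cherry expressed from the same plasmid. As a pooled library in yeast, mid-log cultures grown in leucine-free medium were sorted into four equal gates by GFP/Cherry fluorescence ratio. Gate plasmids were PCR-amplified and Illumina-sequenced, and barcodes linked reads to strains. Each peptide received a protein stability index equal to the sum of each gate's read frequency times its gate number.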
Sequence,protein stability index (doa10∆),protein stability index (pdr5∆),protein stability index (san1∆),protein stability index (ubr1∆)
ILDNTENYDDTELRQLF [DSN1],3.15 ± 0.066,3.28 ± 0.068,3.37 ± 0.042,3.29 ± 0.05
ILDPQVTRFTTWNGSPF [YJL039C/NUP192],1.26 ± 0.09,2.03 ± 0.12,1.51 ± 0.17,2.56 ± 0.12
ILDTSQSESRQKRQLHD [SNU114],3.23 ± 0.11,3.12 ± 0.084,1.72 ± 0.24,3.01 ± 0.048
ILEELDFVRNELNDIDT [SMC3],3.08 ± 0.2,,,
ILERAYKKLDIDGKVIQ [SNF2],3.16 ± 0.083,3.34 ± 0.076,3.05 ± 0.042,3 ± 0.058
ILHGSKSQEQREHSLQL [PRP28],3.11 ± 0.1,2.69 ± 0.089,2.92 ± 0.067,2.35 ± 0.041
ILKSLKNRSNRKRFHSQ [YOR098C/NUP1],3.08 ± 0.061,3.22 ± 0.066,3.03 ± 0.081,3.11 ± 0.042
ILNLLNILTTHLSHPGT [ECM29],2.03 ± 0.042,1.75 ± 0.04,1.65 ± 0.05,1.76 ± 0.037
ILNLYSSAHLIRINDEP [YML103C/NUP188],1.99 ± 0.096,2.18 ± 0.18,1.8 ± 0.26,1.77 ± 0.092
ILSGFHNAGPVAGAGAA [RPP1B],3.01 ± 0.072,2.97 ± 0.061,2.74 ± 0.07,2.65 ± 0.099
ILSINAIDYEPEYEKAM [SMC1],3.29 ± 0.076,3.1 ± 0.068,3.05 ± 0.049,3.13 ± 0.043
ILSKKWGFTNLDRPEYL [RPL10],,,,2.89 ± 0.26
ILTKEVQGSTLAQLTSK [RPS1A],3.27 ± 0.084,3 ± 0.08,3.2 ± 0.072,2.93 ± 0.15
ILVFQVSMKANKYQIKK [RPL25],1.93 ± 0.052,2.2 ± 0.054,3.09 ± 0.046,3.03 ± 0.045
ILVKRYSIEMKPYSGKL [ECM29],1.58 ± 0.048,1.76 ± 0.049,1.79 ± 0.073,2.43 ± 0.044
IMECCQKNDTAAFKDIA [RRP40],3.08 ± 0.16,3.54 ± 0.17,2.95 ± 0.084,3.54 ± 0.077
IMNMIENVEKKEAALKT [SMC2],1.76 ± 0.082,1.83 ± 0.079,1.67 ± 0.092,1.69 ± 0.05
INELTLLVQKRFKYAPG [RPS3],2.83 ± 0.2,2.81 ± 0.14,2.75 ± 0.12,2.96 ± 0.13
INFERIDEVFSWYLNTF [GRR1],2.22 ± 0.058,1.91 ± 0.044,2.51 ± 0.1,1.82 ± 0.051
INFKSREAIRPGHEMED [AAR2],3.33 ± 0.097,3.28 ± 0.091,3.44 ± 0.058,3.38 ± 0.084
INIDDLLYELTAFKATV [YJL039C/NUP192],2.58 ± 0.052,2.67 ± 0.055,2.41 ± 0.054,2.44 ± 0.043
INKEIFHHWLVEFINKM [SRB8],1.49 ± 0.17,1.76 ± 0.12,3.03 ± 0.053,1.6 ± 0.088
INQEKPVKLDENSANST [SIR4],,,3.51 ± 0.18,
INQYQLLYNLKNDILTN [SWI1],1.63 ± 0.038,1.33 ± 0.049,1.28 ± 0.1,1.18 ± 0.036
INSGLYSVLLESPLSVA [YML103C/NUP188],1.47 ± 0.058,1.18 ± 0.066,1.15 ± 0.18,1.14 ± 0.053
INYLALNAANYNIDANV [ECM29],,2.76 ± 0.2,,2.72 ± 0.13
IPDLSIQNDIYLNDLMI [RPN12],2.99 ± 0.046,3.06 ± 0.042,2.99 ± 0.044,3.02 ± 0.046
IPGGPKFEPLYPREEEE [PRP8],3.01 ± 0.11,2.78 ± 0.15,3.01 ± 0.11,2.91 ± 0.13

Sequence,protein stability index (doa10∆),protein stability index (pdr5∆),protein stability index (san1∆),protein stability index (ubr1∆)
IPKPRTAGKTSVKSART [SNF2],3.38 ± 0.1,3.26 ± 0.069,2.89 ± 0.065,3.09 ± 0.048
IPLNRLSLDSDVKFPSN [SMC3],1.69 ± 0.059,1.92 ± 0.064,2.05 ± 0.11,1.99 ± 0.054
IPRNSPLSDLKKRSQAK [RPC82],2.65 ± 0.26,3.17 ± 0.22,,
IPSLANNGNNSTSIQYH [POP6],2.45 ± 0.054,2.95 ± 0.06,2.47 ± 0.066,2.59 ± 0.046
IPSSKYAYMMNSQSPRG [YLR018C/POM34],2.78 ± 0.062,2.69 ± 0.066,2.75 ± 0.044,2.75 ± 0.045
IPVIALTDLDSPSEFVD [RPS0A],2.68 ± 0.095,2.69 ± 0.091,2.74 ± 0.096,2.42 ± 0.06
IQELRKLLKSLLLNYLE [MED7],1.71 ± 0.056,1.24 ± 0.069,1.12 ± 0.12,1.04 ± 0.1
IQHVGMINGRKLIKFET [FAS1],2.82 ± 0.072,2.85 ± 0.074,3.05 ± 0.085,2.81 ± 0.041
IQKGKFTLLDFKKQMQT [SRP54],1.27 ± 0.13,1.85 ± 0.22,1.07 ± 0.21,1.7 ± 0.29
IQSQVFESLYNSNDSVF [BRR2],2.04 ± 0.053,2.31 ± 0.057,1.59 ± 0.097,2.09 ± 0.046
IRAGEFDVVLTTFEYII [SNF2],2.31 ± 0.14,2.56 ± 0.13,2.37 ± 0.11,2.59 ± 0.12
IRAHQTELTHHLLPRNE [QCR7],2.99 ± 0.1,3.2 ± 0.072,3.02 ± 0.064,2.92 ± 0.065
IRALQPKLKEGALHFVQ [YIL149C/MLP2],2.77 ± 0.074,2.06 ± 0.077,2.17 ± 0.068,2.69 ± 0.071
IRENKVTYSRVSKKVDV [BRN1],2.76 ± 0.1,2.93 ± 0.11,2.94 ± 0.081,3.04 ± 0.087
IRFRIEREVFVDVKPKS [RPC25],2.13 ± 0.12,2.66 ± 0.16,2.16 ± 0.13,2.12 ± 0.25
IRITSLQGDLTFTKKCL [SIR4],2.87 ± 0.068,2.71 ± 0.078,2.81 ± 0.085,2.79 ± 0.059
IRKFFGLSKEDDVRDFV [RPS6A],3.43 ± 0.1,3.35 ± 0.098,3.38 ± 0.12,3.32 ± 0.098
IRKIVRKDENQFSYVDS [AAR2],3.18 ± 0.12,3.14 ± 0.12,3.03 ± 0.073,3.12 ± 0.076
IRNARSIRAEAVAASST [POP1],3.13 ± 0.24,2.54 ± 0.23,2.5 ± 0.14,2.19 ± 0.1
IRNEGSDAEEEEGEYKN [ISW2],,,,3.44 ± 0.11
IRTRRAAELLDKRIVIS [DIS3],1.5 ± 0.11,1.81 ± 0.1,1.51 ± 0.17,1.84 ± 0.1
IRVLFKENGQLIGAATK [SEC65],1.97 ± 0.068,2.12 ± 0.11,2.17 ± 0.12,2.38 ± 0.079
IRYNSVEIQEVPRTADR [RPC82],2.52 ± 0.063,2.64 ± 0.044,2.88 ± 0.079,2.79 ± 0.048
ISDVKIQVAAFIYGMSA [PRP8],,2.17 ± 0.17,1.84 ± 0.12,1.94 ± 0.14
ISELPPQIRQEIEQLDQ [YGL172W/NUP49],2.98 ± 0.084,3.06 ± 0.061,2.65 ± 0.088,3.06 ± 0.049
ISIKDNKLVMKSKFNKS [GAL11],2.51 ± 0.057,2.59 ± 0.064,3.2 ± 0.047,2.08 ± 0.068
ISKQKSKLDYIFKDKEK [SMC1],2.78 ± 0.14,2.71 ± 0.12,2.89 ± 0.15,3.29 ± 0.091
